In PMC8786643 (iScience, 2022):

Legend:
[1] = biological target: T1, mouse Glut12/Slc2a12 (Mus musculus, UniProt Q8BFW9); assay: [[…]-14C]-urate uptake in transiently transfected HEK293 cells; type: cell-based; conditions: 10 µM urate, Krebs-Ringer buffer, pH 5.4, 10 min; labelled compound
T1 construct: full-length wild-type ORF in pEGFP-N1, EGFP-tagged; transient expression in HEK293 cells
T1 sequence (Q8BFW9 1-622): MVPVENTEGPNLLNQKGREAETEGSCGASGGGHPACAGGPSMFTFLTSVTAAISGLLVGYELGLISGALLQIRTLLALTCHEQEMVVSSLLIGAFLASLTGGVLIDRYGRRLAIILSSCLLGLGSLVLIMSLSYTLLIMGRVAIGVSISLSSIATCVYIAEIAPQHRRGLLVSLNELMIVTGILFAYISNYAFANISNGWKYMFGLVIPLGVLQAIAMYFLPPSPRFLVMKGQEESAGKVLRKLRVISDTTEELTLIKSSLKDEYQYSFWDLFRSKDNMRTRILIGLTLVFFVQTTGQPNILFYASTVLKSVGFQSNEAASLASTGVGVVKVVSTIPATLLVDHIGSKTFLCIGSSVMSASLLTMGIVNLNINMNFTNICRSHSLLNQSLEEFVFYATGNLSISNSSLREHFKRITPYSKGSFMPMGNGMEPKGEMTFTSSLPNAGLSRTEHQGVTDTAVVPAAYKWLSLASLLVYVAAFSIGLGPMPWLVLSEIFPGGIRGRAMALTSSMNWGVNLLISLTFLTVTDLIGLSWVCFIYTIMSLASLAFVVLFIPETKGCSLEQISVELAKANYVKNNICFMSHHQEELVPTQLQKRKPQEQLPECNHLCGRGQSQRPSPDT

[2] = substrate: O=C1O[C@H]([C@@H](O)CO)C(O)=C1O; assay: cells, lysate or membranes; conditions: Krebs-Ringer buffer, pH 5.4, 37 °C, labelled compound

## O=c1[nH]c(=O)c2[nH]c(=O)[nH]c2[nH]1 [urate]
[1]
  [8-14C]-urate uptake in transiently transfected HEK293 cells: cell-based urate uptake assays using human GLUT12- and mouse Glut12-expressing HEK293 cells were conducted

B1: mouse Glut12/Slc2a12 (Mus musculus) (protein)
chain: T1 sequence (Q8BFW9 1-622)
[2]
  Km: 1245 µM

B2: human GLUT12/SLC2A12 (Homo sapiens) (protein)
chain: MVPVENTEGPSLLNQKGTAVETEGSGSRHPPWARGCGMFTFLSSVTAAVSGLLVGYELGIISGALLQIKTLLALSCHEQEMVVSSLVIGALLASLTGGVLIDRYGRRTAIILSSCLLGLGSLVLILSLSYTVLIVGRIAIGVSISLSSIATCVYIAEIAPQHRRGLLVSLNELMIVIGILSAYISNYAFANVFHGWKYMFGLVIPLGVLQAIAMYFLPPSPRFLVMKGQEGAASKVLGRLRALSDTTEELTVIKSSLKDEYQYSFWDLFRSKDNMRTRIMIGLTLVFFVQITGQPNILFYASTVLKSVGFQSNEAASLASTGVGVVKVISTIPATLLVDHVGSKTFLCIGSSVMAASLVTMGIVNLNIHMNFTHICRSHNSINQSLDESVIYGPGNLSTNNNTLRDHFKGISSHSRSSLMPLRNDVDKRGETTSASLLNAGLSHTEYQIVTDPGDVPAFLKWLSLASLLVYVAAFSIGLGPMPWLVLSEIFPGGIRGRAMALTSSMNWGINLLISLTFLTVTDLIGLPWVCFIYTIMSLASLLFVVMFIPETKGCSLEQISMELAKVNYVKNNICFMSHHQEELVPKQPQKRKPQEQLLECNKLCGRGQSRQLSPET
[2]; 5 min uptake
  Km: 846 µM
